± gives the standard deviation.
Experiment: protein stability index of a GFP-peptide fusion (GPS, HEK-293T) (PSI 1-6); higher = more stable
[1] = treatment: DMSO, c terminus: a fixed tail appended
[2] = treatment: MLN4924 1 uM, 8 h, c terminus: a fixed tail appended
[3] = treatment: DMSO, c terminus: native
[4] = treatment: MLN4924 1 uM, 8 h, c terminus: native
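Note: 24-mer peptide tiles fused after GFP, lentivirally expressed, FACS-sorted into six equal bins by GFP/DsRed ratio, decoded by Illumina sequencing, PSI is the read-weighted mean bin number.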

Sequence | protein stability index [1] | protein stability index [2] | protein stability index [3] | protein stability index [4]
RLRGKLRAEIENLHRTFDPHFLRV [MOG] | 2.48 ± 0.18 | 2.44 ± 0.28 | – | –
GGSGGGGGGDEDGSLGSRAEPAPR [SMAD6] | 5.38 ± 0.21 | 5.41 ± 0.13 | – | –
PESRSLPSSPLRLGSYKAQKTSRS [PPEF2] | 5.29 ± 0.16 | 5.14 ± 0.24 | – | –
CATTNASGNSCGPCGTSQKGCCN [KRT34] | – | – | 3.78 ± 0.17 | 3.66 ± 0.31
VIDKETIDLLAFTSVAELELLGLE [SDE2] | 2.27 ± 0.52 | 2.73 ± 0.48 | – | –
EMEKSFREEEKTFWKKYRTFWKED [CCDC70] | 3.77 ± 0.31 | 3.67 ± 0.35 | – | –
TPEDSDPDHFDTAILFTRQDLCGV [ADAMTS4] | 4.15 ± 0.092 | 4.18 ± 0.17 | – | –
KYNSARADFEQKMLDSALRFQAME [FCHO1] | 3.5 ± 0.074 | 3.48 ± 0.27 | – | –
FYAITTLHNLLLHQEGAKMAVRLA [CTNNB1] | 3.02 ± 0.17 | 2.79 ± 0.15 | – | –
LQLSEFLCEEFRNRNQRIVQLIQD [CPN1] | 2.56 ± 0.25 | 2.71 ± 0.39 | – | –
SVILNHMAREHAFNIGLPDNIVNC [ZNF277] | 1.98 ± 0.2 | 2.22 ± 0.45 | – | –
KTQEHTPTPDDHVFRWLAYSYAST [CPXM2] | 2.14 ± 0.34 | 2.2 ± 0.3 | – | –
NHDIRTANDGDYWRLLNPGEYVVT [CPXM2] | 2.96 ± 0.21 | 3.25 ± 0.31 | – | –
SESGKLVTKMFQKIQDLIDDKDAL [TRIP13] | 3.43 ± 0.17 | 3.42 ± 0.2 | – | –
MKYTSEKFLEICKLSGFMSKLVPA [TPRG1] | 3.05 ± 1 | 2.56 ± 0.45 | – | –
NGDGAFLHDNHEQMPTEIEFPESR [ZNF649] | 5.31 ± 0.36 | 5.19 ± 0.45 | – | –
QGRFCTIFRSYSRGAQGILLVYDI [RAB40C] | 2.74 ± 0.61 | 3.1 ± 0.64 | – | –
VDDLKGSLKEDLTQHKFICEQCGK [SPRY1] | 5.03 ± 0.3 | 4.88 ± 0.26 | – | –
SSSTMSKSEYMEIEEDMNNSIAHY [KCNA1] | 4.56 ± 0.33 | 4.5 ± 0.11 | – | –
HVLLPVALEFQPQLVLVAAGFDAL [HDAC6] | 3.25 ± 0.43 | 2.78 ± 0.43 | – | –
KSTSKYIYQTLFLNGENSDIKICA [GMCL1] | 2.06 ± 0.65 | 3.41 ± 1.3 | – | –
QAGSSQGLSLCQFQNFSLHDPLYG [LPCAT4] | 3 ± 0.41 | 2.98 ± 0.31 | – | –
LICKYDFIMLSCVQLQRIPLSAVY [TPRG1] | 3.2 ± 0.37 | 3.36 ± 0.83 | – | –

Sequence | protein stability index [1] | protein stability index [2] | protein stability index [3] | protein stability index [4]
VRGLYDFYLPREELWIYNMETGRW [KLHDC2] | 2.57 ± 0.39 | 2.24 ± 0.48 | – | –
SGPRQLLTLYNPTGTALRFRVLCT [MOSPD3] | 2.15 ± 0.48 | 2.16 ± 0.27 | – | –
VCTKYNLRITSGVVVCQCGLSIPS [RPAIN] | 2.56 ± 0.5 | 2.45 ± 0.55 | – | –
YYLRKGKKINSNQLENEQSQENSI [SPANXN3] | 4.47 ± 0.23 | 4.23 ± 0.27 | – | –
YCFCGWIVLGPYHVKFRSLSMVSE [MCOLN1] | 2.85 ± 1.1 | 3.1 ± 1.3 | – | –
EEEEGTMMKAKGDLEMKEEEEISE [ZBED2] | – | 5.53 ± 0.53 | – | –
TPLDAFRMTSAAHYYPKLMSIMGN [GFOD1] | 2.12 ± 0.33 | 2.06 ± 0.093 | – | –
NQLQTKVAVLEQEIKDKDQLVLRT [SASS6] | 4.65 ± 0.21 | 4.74 ± 0.27 | – | –
EAEADKPRRLGRLKYQAPDIDVQL [NOP53] | 4.63 ± 0.22 | 4.4 ± 0.2 | – | –
KNSLFPSPISSISPGLHSFTDHQR [KCNK9] | 3.3 ± 0.25 | 3.27 ± 0.38 | – | –
SSGRRVSLHCLLDQFDKDLPVYLK [DENND6A] | 2.35 ± 0.45 | 2.4 ± 0.45 | – | –
WDPHNGDILMEFGHLFPPPTPIFA [WSB1] | 2.38 ± 0.31 | 2.21 ± 0.27 | – | –
GKDCFLELAPDFVGDILWEHLEIL [ETS1] | 2.42 ± 0.54 | 2.05 ± 0.39 | – | –
SLLLTPQENESLFTFLGKKCVTMS [WASL] | 2.45 ± 0.15 | 2.5 ± 0.4 | – | –
EKYSVATQLFIGGVTGWCTGFIFQ [FUNDC2] | 2.75 ± 0.75 | 3.06 ± 0.35 | – | –
AKLVDLPCVIESLRTLDKKTFYKT [TAF7L] | 2.52 ± 0.47 | 2.18 ± 0.42 | – | –
SLTAAETLALQGTQGQEKMMMMGP [ZNF232] | 4.01 ± 0.18 | 4.14 ± 0.2 | – | –
SSCFFIESCGAQVPVEGSRRETSI | 3 ± 0.38 | 2.79 ± 0.033 | – | –
EHSHRSHHSLASSLRSHHTHPSYG [DVL3] | 3.48 ± 0.25 | 3.56 ± 0.19 | – | –
KKKRPPQPPEESQPPQSQAQVPPA [PLK2] | 5.35 ± 0.23 | 5.46 ± 0.14 | – | –
AAVLQYASLVGQKCSERMLLFRN [ATE1] | – | – | 2.38 ± 0.043 | 2.27 ± 0.33
ESAQATFQAHRDKYEKLRGDVAIK [ARFIP2] | 4.37 ± 0.16 | 4.62 ± 0.18 | – | –
SLLTNWPSVPPTIKEEENSEEELA [MYBL2] | 5.41 ± 0.26 | 5.28 ± 0.28 | – | –

Sequence | protein stability index [1] | protein stability index [2] | protein stability index [3] | protein stability index [4]
FHVDSAAEYYRLHLEGYHGTAGDS [TNXB] | 2.81 ± 0.27 | 3.17 ± 0.31 | – | –
EKETMQFLNDRLANYLEKVRQLER [KRT36] | 2.87 ± 0.38 | 2.85 ± 0.32 | – | –
FLTVGSVLQMWHIVDKCTELLREG [ZBTB22] | 3.09 ± 0.55 | 3.4 ± 0.32 | – | –
VSRGGHGQQDLFRVLKAYTLYRPE [TBC1D10A] | 2.06 ± 0.17 | 2.12 ± 0.36 | – | –
DLLPTFRHTLQKLTCEFNNNHESL [FBXO39] | 2.27 ± 0.22 | 2.35 ± 0.48 | – | –
GFIRFDKRIEAEEAIKGLNGQKPL [ELAVL3] | 3.66 ± 0.42 | 4.08 ± 0.49 | – | –
VLIFKSILFLPCLRKKILKIRHGW [STEAP1] | 2.16 ± 0.51 | 2.38 ± 0.25 | – | –
TPKDKRVSNTPLRTVDGSPMMKAA [PALM] | 4.33 ± 0.3 | 4.39 ± 0.24 | – | –
RVDVDTYLTSQLPPLREIILGPSS [NFE2L1] | 2.67 ± 0.46 | 2.67 ± 0.35 | – | –
PGPGIGGDAHFDEDERWTNNFREY [MMP1] | 4.14 ± 0.39 | 4.2 ± 0.35 | – | –
FHPDPRQKALYRRLATVHMSRMIN [CLPTM1] | 2.58 ± 0.55 | 2.39 ± 0.25 | – | –
QEQEIDGKSLLLMTRNDVLTGLQL [SAMD13] | 3.23 ± 0.23 | 3.36 ± 0.24 | – | –
PNADLLFSDPSQSDPETKDFWLNM [FCHO1] | 4.2 ± 0.21 | 4.19 ± 0.19 | – | –
WWNHMHFQHHAKPNCFRKDPDINM [FADS1] | 2.17 ± 0.42 | 2.26 ± 0.49 | – | –
LRGGRGGSGGTRGPPSRGGHMDDG [RBMX] | 5.26 ± 0.19 | 5.3 ± 0.34 | – | –
SGSGNGSSTLNPSTSSSTQGDPAF [NOL4L] | 5.04 ± 0.34 | 5.07 ± 0.17 | – | –
DLQVNRNFSLATNTKYSVYIYVYF [R3HDM1] | 2.59 ± 0.59 | 2.88 ± 0.078 | – | –
LWVPQPPPRTIKRTRRRLSRNRDP [PWWP2B] | 3.44 ± 0.35 | 3.82 ± 0.33 | – | –
EQLFFVRLVGKTPIETLIRDMLLS [NR2F2] | 2.56 ± 0.47 | 2.42 ± 0.61 | – | –
MASRKTKKKEGGALRAQRASSNVF [MYL5] | 4.13 ± 0.15 | 4.05 ± 0.25 | – | –
IASSDSEVEIVGVQEHARCVHPRG [C18orf25] | 4.49 ± 0.37 | 4.6 ± 0.1 | – | –
YHINSISVNSDCETYMSADDLRIN [PPP2R2C] | 2.89 ± 0.44 | 3.2 ± 0.29 | – | –
CPIDQHHRNQCQYCRLKKCLKVGM [NR2F2] | 2.97 ± 0.038 | 3.36 ± 0.36 | – | –

Sequence | protein stability index [1] | protein stability index [2] | protein stability index [3] | protein stability index [4]
YSLTTSSTHKSSLCKVEIVCPPQS [RAB40A] | 2.64 ± 0.19 | 2.64 ± 0.12 | – | –
YFSLYCLHQETQLIHVYLPLTSHI [SNX8] | 2.95 ± 0.35 | 2.78 ± 0.32 | – | –
PSPVRAPAPSPAKEERKTEVVMNS [PALM] | 5.35 ± 0.36 | 5.53 ± 0.13 | – | –
EWIRFDQSNVLCSIFGICMVFSGL [PTGFR] | 2.87 ± 0.59 | 3.15 ± 0.071 | – | –
DKDCSLDCAGSPQKPLCASDGRTF [SMOC2] | 4.68 ± 0.39 | 4.76 ± 0.34 | – | –
QSYFKTIEDFQQKILLTKSENARL [KRT36] | 3.05 ± 0.42 | 2.77 ± 0.23 | – | –
RYTFAPSVSLNKTARPFGAPPPAD [PDLIM7] | 3.34 ± 0.2 | 3.55 ± 0.21 | – | –
FSKVKTSLGLDHCHSFISGTAPLN [ACSBG2] | 2.52 ± 0.3 | 2.44 ± 0.29 | – | –
WCDGCKNHIGMGVRYNAEKKKVGN [YJU2B] | 3.67 ± 0.34 | 3.65 ± 0.32 | – | –
RAVNSLSMENANQENEEKEQVANK [BEX1] | 5.52 ± 0.24 | 5.5 ± 0.34 | – | –
LFCDVTLTAQGQQFHCHKAVLASC [KLHL14] | 2.66 ± 0.55 | 2.71 ± 0.57 | – | –
TCFDQRKRANAAFLIGAYAVIYLK [CDC14A] | 2.05 ± 0.31 | 2.13 ± 0.41 | – | –
DKWFRKIKDHFCPFENQFHTEIQI [C8orf76] | 2.2 ± 0.54 | 2.32 ± 0.42 | – | –
VVPARLKRASAPTFDNDYSLSELL [RIPK4] | 2.69 ± 0.17 | 2.8 ± 0.42 | – | –
SDQDPRVRTAAIKAMLQLHERGLK [INTS4] | 3.67 ± 0.31 | 3.79 ± 0.39 | – | –
TSYKVMVSNDSHTWVTVKNGSGDM [CPXM2] | 2.8 ± 0.38 | 2.94 ± 0.27 | – | –
VEAVAYAPKKELINIKGISEAKAD [RAD51] | 4.49 ± 0.22 | 4.52 ± 0.41 | – | –
IQEQPGQEQVAGGEAQPGLPQEDP [FEM1A] | 5.58 ± 0.16 | 5.57 ± 0.16 | – | –
GNVKIDSQKLNFREHAKARVDHGA [MAP2] | 4.22 ± 0.14 | 4.23 ± 0.52 | – | –
PIVSSLADPLDTPPDSKEGIVVES [PDZK1] | 5.37 ± 0.14 | 5.25 ± 0.48 | – | –
